In publication PMC9320857, “Protocellular CRISPR/Cas‐Based Diffusive Communication Using Transcriptional RNA Signaling”:

Target: T7 RNA polymerase (UniProt P00573 1-883)
Assay: confocal localization to immobilized DNA; 500 nM Cy5-T7 RNAP, 0.5 h, 37 C; target in proteinosomes; reaction buffer (composition not in the material; NEB buffer 3.1 mentioned), 37 C; DNA localization in 10 mM Tris pH 8.0, 12 mM Mg, 0.1% Tween 20
Conditions: protein: commercial; tags: Cy5 label; label: Cy3 5' on NTMG; biotin on TMG; NTMG 5' overhang 27 nt (incomplete T7 promoter)

T7 RNA polymerase, sequence (P00573 whole entry): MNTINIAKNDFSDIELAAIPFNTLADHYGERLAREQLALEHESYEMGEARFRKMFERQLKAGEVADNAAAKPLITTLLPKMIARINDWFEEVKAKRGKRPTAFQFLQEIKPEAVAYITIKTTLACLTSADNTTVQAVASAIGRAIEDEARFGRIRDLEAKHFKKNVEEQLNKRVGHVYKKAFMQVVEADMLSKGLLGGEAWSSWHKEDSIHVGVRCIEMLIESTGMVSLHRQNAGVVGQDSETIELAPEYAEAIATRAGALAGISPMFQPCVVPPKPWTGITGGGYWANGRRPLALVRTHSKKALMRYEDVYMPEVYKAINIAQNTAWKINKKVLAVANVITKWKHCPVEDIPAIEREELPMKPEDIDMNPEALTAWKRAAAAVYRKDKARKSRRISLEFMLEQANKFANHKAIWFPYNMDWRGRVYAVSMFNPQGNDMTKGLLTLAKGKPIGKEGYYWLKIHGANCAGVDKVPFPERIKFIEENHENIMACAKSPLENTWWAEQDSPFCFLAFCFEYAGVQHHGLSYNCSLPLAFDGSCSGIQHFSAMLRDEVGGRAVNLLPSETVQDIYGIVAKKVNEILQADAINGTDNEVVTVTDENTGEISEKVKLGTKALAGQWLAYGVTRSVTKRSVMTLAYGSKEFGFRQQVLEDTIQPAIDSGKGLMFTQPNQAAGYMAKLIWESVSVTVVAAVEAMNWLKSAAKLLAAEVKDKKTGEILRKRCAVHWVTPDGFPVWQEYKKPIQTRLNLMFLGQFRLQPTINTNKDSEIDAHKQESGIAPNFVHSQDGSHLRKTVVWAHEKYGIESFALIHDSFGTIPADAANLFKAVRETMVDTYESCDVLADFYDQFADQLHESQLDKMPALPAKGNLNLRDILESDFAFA

B1: MG genelet TMG/NTMG (dsDNA)
DNA 1: CATTAGTGTCGTTCGTTCACAGTAATACGACTCACTATAGGGATCCCGACTGGCGAGAGCCAGGTAACGAATGGATC
DNA 2: GATCCATTCGTTACCTGGCTCTCGCCAGTCGGGATCCCTATAGTGAGTCG
- binding result: binds
